Assay results reported in paper PMC9352680, “A comprehensive thermodynamic model for RNA binding by the Saccharomyces cerevisiae Pumilio protein PUF4”.

Biological target: T1, PUF4 RNA-binding domain (Saccharomyces cerevisiae, UniProt P25339 537-888)
T1 sequence: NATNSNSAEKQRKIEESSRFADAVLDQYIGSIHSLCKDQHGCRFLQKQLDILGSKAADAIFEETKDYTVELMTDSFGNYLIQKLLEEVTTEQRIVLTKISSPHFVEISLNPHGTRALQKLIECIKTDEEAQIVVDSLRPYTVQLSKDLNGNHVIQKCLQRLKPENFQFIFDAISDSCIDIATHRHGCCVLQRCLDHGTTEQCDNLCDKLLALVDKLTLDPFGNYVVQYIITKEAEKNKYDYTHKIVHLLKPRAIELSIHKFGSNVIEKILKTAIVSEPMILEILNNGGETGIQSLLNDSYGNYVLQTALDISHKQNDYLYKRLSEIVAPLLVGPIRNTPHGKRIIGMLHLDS
Test: Mg; RNA-MaP; 20 mM Na-HEPES pH 7.4, 30 mM KOAc, 0.75 mM MgCl2, 0.1% Tween-20, 5% glycerol, 0.1 mg/mL BSA, 2 mM DTT; 25 C; 0.0125-409.6 nM protein
Settings: tags: N-His6-TEV cleaved; C-SNAP kept, Cy3B-labelled; label: tethered on chip by stalled RNA polymerase

B1: Ic_S2_P5E.1_K5.1_C5.1_H5.1_A5.1_[T6A]_[A7T]_F5.1_[T9C]_[A10C]_T5.1 (ssRNA)
RNA: UUUGAUUAAUAUGAUAUCGUUCUUUCUUGUAUAUUCCUUCUUUCUCGAUAUCAUAUUAAUCUUU
B1 showed a Kd of 2.26 nM.

B2: Ic_S2_P5E.1_K5.1_C5.1_H5.1_A5.1_[A7C]_F5.1_[T8G]_[A10T]_T5.1 (ssRNA)
RNA: UUUGAUUAAUAUGAUAUCGUUCUUUCUUGUAUUCGUUUUCUUUCUCGAUAUCAUAUUAAUCUUU
Work on B2 yielded a Kd of 67.8 nM.

B3: Ic_S2_P5E.1_K5.1_C5.1_H5.1_A5.1_[A7C]_F5.1_[T8C]_[T9A]_T5.1 (ssRNA)
RNA: UUUGAUUAAUAUGAUAUCGUUCUUUCUUGUAUUCCAAUUCUUUCUCGAUAUCAUAUUAAUCUUU
Work on B3 yielded a Kd of 622 nM.

B4: Ib_S1_P4E.1_K4.1_C4.1_H4.1_[T1C]_A4.1_F4.1_[A9C]_T4.1 (ssRNA)
RNA: UCUCUUCGUAUAUUCUCUCUU
B4 gave a Kd of 1140 nM.

B5: Ic_S2_P5E.1_K5.1_C5.1_H5.1_A5.1_[T5G]_[A7G]_F5.1_[T8G]_[T9C]_[A10C]_T5.1 (ssRNA)
RNA: UUUGAUUAAUAUGAUAUCGUUCUUUCUUGUAGUGGCCUUCUUUCUCGAUAUCAUAUUAAUCUUU
In the case of B5, the Kd is reported as > 2300 nM.

B6: Ic_S2_P5E.1_K5.1_C5.1_H5.1_A5.1_[T5A]_[A7C]_F5.1_[T9A]_T5.1 (ssRNA)
RNA: UUUGAUUAAUAUGAUAUCGUUCUUUCUUGUAAUCUAAUUCUUUCUCGAUAUCAUAUUAAUCUUU
In the case of B6, the Kd is reported as 8.11 nM.

B7: Ic_S2_P5E.1_K5.1_C5.1_H5.1_A5.1_[T5A]_[A7C]_F5.1_[T8C]_[T9G]_[A10C]_T5.1 (ssRNA)
RNA: UUUGAUUAAUAUGAUAUCGUUCUUUCUUGUAAUCCGCUUCUUUCUCGAUAUCAUAUUAAUCUUU
With B7 the Kd was 1200 nM.

B8: Ic_S2_P5E.1_K5.1_C5.1_H5.1_A5.1_[T5G]_[T6C]_[A7T]_F5.1_[T8G]_[T9G]_[A10T]_T5.1 (ssRNA)
RNA: UUUGAUUAAUAUGAUAUCGUUCUUUCUUGUAGCUGGUUUCUUUCUCGAUAUCAUAUUAAUCUUU
B8 gave a Kd of 679 nM.

B9: Ic_S2_P5E.1_K5.1_C5.1_H5.1_A5.1_[T5C]_[A7G]_F5.1_[T8G]_T5.1 (ssRNA)
RNA: UUUGAUUAAUAUGAUAUCGUUCUUUCUUGUACUGGUAUUCUUUCUCGAUAUCAUAUUAAUCUUU
B9 was tested, and the Kd was 38.2 nM.

B10: Ic_S2_P5E.1_K5.1_C5.1_H5.1_A5.1_[T5C]_[T6A]_[A7T]_F5.1_[T8A]_[T9G]_[A10T]_T5.1 (ssRNA)
RNA: UUUGAUUAAUAUGAUAUCGUUCUUUCUUGUACAUAGUUUCUUUCUCGAUAUCAUAUUAAUCUUU
For B10, the Kd was 5.17 nM.

B11: Ic_S2_P5E.1_K5.1_C5.1_H5.1_A5.1_[T5A]_[T6C]_F5.1_[T8C]_[T9C]_T5.1 (ssRNA)
RNA: UUUGAUUAAUAUGAUAUCGUUCUUUCUUGUAACACCAUUCUUUCUCGAUAUCAUAUUAAUCUUU
B11 gave a Kd of 278 nM.

B12: Ic_S2_P5E.1_K5.1_C5.1_H5.1_A5.1_[A7T]_F5.1_[T9C]_[A10T]_T5.1 (ssRNA)
RNA: UUUGAUUAAUAUGAUAUCGUUCUUUCUUGUAUUUUCUUUCUUUCUCGAUAUCAUAUUAAUCUUU
For B12, the Kd was 16.4 nM.

B13: Ic_S2_P5E.1_K5.1_C5.1_H5.1_A5.1_[T5A]_[A7T]_F5.1_[T8C]_[T9A]_[A10C]_T5.1 (ssRNA)
RNA: UUUGAUUAAUAUGAUAUCGUUCUUUCUUGUAAUUCACUUCUUUCUCGAUAUCAUAUUAAUCUUU
B13 showed a Kd of 599 nM.

B14: Ic_S2_P5E.1_K5.1_C5.1_H5.1_A5.1_[T5C]_[A7T]_F5.1_[T8G]_[A10T]_T5.1 (ssRNA)
RNA: UUUGAUUAAUAUGAUAUCGUUCUUUCUUGUACUUGUUUUCUUUCUCGAUAUCAUAUUAAUCUUU
In the case of B14, the Kd is reported as 28.3 nM.

B15: Ib_S1_P4E.1_K4.1_C4.1_H4.1_[T1G]_A4.1_F4.1_[A9T]_T4.1 (ssRNA)
RNA: UCUCUUGGUAUAUUUUCUCUU
Work on B15 yielded a Kd of 1210 nM.

B16: Ic_S2_P5E.1_K5.1_C5.1_H5.1_A5.1_[T5G]_F5.1_[T8C]_[T9C]_[A10T]_T5.1 (ssRNA)
RNA: UUUGAUUAAUAUGAUAUCGUUCUUUCUUGUAGUACCUUUCUUUCUCGAUAUCAUAUUAAUCUUU
In the case of B16, the Kd is reported as 413 nM.

B17: Ic_S2_P5E.1_K5.1_C5.1_H5.1_A5.1_[T6C]_[A7T]_F5.1_[T9A]_[A10T]_T5.1 (ssRNA)
RNA: UUUGAUUAAUAUGAUAUCGUUCUUUCUUGUAUCUUAUUUCUUUCUCGAUAUCAUAUUAAUCUUU
B17 showed a Kd of 1.53 nM.

B18: Ic_S2_P5E.1_K5.1_C5.1_H5.1_A5.1_[T6C]_[A7C]_F5.1_[T8C]_T5.1 (ssRNA)
RNA: UUUGAUUAAUAUGAUAUCGUUCUUUCUUGUAUCCCUAUUCUUUCUCGAUAUCAUAUUAAUCUUU
For B18, the Kd was 9.09 nM.

B19: Ic_S2_P5E.1_K5.1_C5.1_H5.1_A5.1_[T6C]_[A7T]_F5.1_[T9C]_[A10C]_T5.1 (ssRNA)
RNA: UUUGAUUAAUAUGAUAUCGUUCUUUCUUGUAUCUUCCUUCUUUCUCGAUAUCAUAUUAAUCUUU
Work on B19 yielded a Kd of 14 nM.

B20: Ic_S2_P5E.1_K5.1_C5.1_H5.1_A5.1_[T5G]_[T6C]_F5.1_[T8C]_[A10T]_T5.1 (ssRNA)
RNA: UUUGAUUAAUAUGAUAUCGUUCUUUCUUGUAGCACUUUUCUUUCUCGAUAUCAUAUUAAUCUUU
With B20 the Kd was 99.7 nM.

B21: Ic_S2_P5E.1_K5.1_C5.1_H5.1_A5.1_[T6A]_[A7T]_F5.1_[T8C]_[T9A]_[A10G]_T5.1 (ssRNA)
RNA: UUUGAUUAAUAUGAUAUCGUUCUUUCUUGUAUAUCAGUUCUUUCUCGAUAUCAUAUUAAUCUUU
For B21, the Kd was 24.5 nM.

B22: Ic_S2_P5E.1_K5.1_C5.1_H5.1_A5.1_[T5C]_[T6A]_[A7G]_F5.1_[A10G]_T5.1 (ssRNA)
RNA: UUUGAUUAAUAUGAUAUCGUUCUUUCUUGUACAGUUGUUCUUUCUCGAUAUCAUAUUAAUCUUU
With B22 the Kd was 9.39 nM.

B23: Ic_S2_P5E.1_K5.1_C5.1_H5.1_A5.1_[T5G]_[A7G]_F5.1_[T8C]_[T9C]_T5.1 (ssRNA)
RNA: UUUGAUUAAUAUGAUAUCGUUCUUUCUUGUAGUGCCAUUCUUUCUCGAUAUCAUAUUAAUCUUU
Binder B23 has a Kd of 983 nM.

B24: Ic_S2_P5E.1_K5.1_C5.1_H5.1_A5.1_[T6C]_F5.1_[T8A]_[A10G]_T5.1 (ssRNA)
RNA: UUUGAUUAAUAUGAUAUCGUUCUUUCUUGUAUCAAUGUUCUUUCUCGAUAUCAUAUUAAUCUUU
B24 was tested, and the Kd was 122 nM.

B25: Ic_S2_P5E.1_K5.1_C5.1_H5.1_A5.1_[T5A]_[T6C]_[A7C]_F5.1_[T8G]_T5.1 (ssRNA)
RNA: UUUGAUUAAUAUGAUAUCGUUCUUUCUUGUAACCGUAUUCUUUCUCGAUAUCAUAUUAAUCUUU
B25 gave a Kd of 12.9 nM.

B26: Ib_S1_P4E.1_K4.1_C4.1_H4.1_[T1C]_A4.1_F4.1_[A9T]_T4.1 (ssRNA)
RNA: UCUCUUCGUAUAUUUUCUCUU
B26 showed a Kd of 1420 nM.

B27: Ic_S2_P5E.1_K5.1_C5.1_H5.1_A5.1_[T5A]_[T6C]_[A7C]_F5.1_[T8A]_[T9C]_[A10C]_T5.1 (ssRNA)
RNA: UUUGAUUAAUAUGAUAUCGUUCUUUCUUGUAACCACCUUCUUUCUCGAUAUCAUAUUAAUCUUU
Work on B27 yielded a Kd of 1060 nM.

B28: Ic_S2_P5E.1_K5.1_C5.1_H5.1_A5.1_[T6C]_[A7C]_F5.1_[T8A]_[T9G]_[A10C]_T5.1 (ssRNA)
RNA: UUUGAUUAAUAUGAUAUCGUUCUUUCUUGUAUCCAGCUUCUUUCUCGAUAUCAUAUUAAUCUUU
In the case of B28, the Kd is reported as 1560 nM.

B29: Ic_S2_P5E.1_K5.1_C5.1_H5.1_A5.1_[T5C]_[A7C]_F5.1_[A10T]_T5.1 (ssRNA)
RNA: UUUGAUUAAUAUGAUAUCGUUCUUUCUUGUACUCUUUUUCUUUCUCGAUAUCAUAUUAAUCUUU
For B29, the Kd was 8.52 nM.

B30: Ic_S2_P5E.1_K5.1_C5.1_H5.1_A5.1_[T5G]_[T6C]_[A7T]_F5.1_[T8C]_[T9G]_[A10T]_T5.1 (ssRNA)
RNA: UUUGAUUAAUAUGAUAUCGUUCUUUCUUGUAGCUCGUUUCUUUCUCGAUAUCAUAUUAAUCUUU
Work on B30 yielded a Kd of 275 nM.

B31: Ic_S2_P5E.1_K5.1_C5.1_H5.1_A5.1_[T5G]_[A7T]_F5.1_[T9A]_[A10T]_T5.1 (ssRNA)
RNA: UUUGAUUAAUAUGAUAUCGUUCUUUCUUGUAGUUUAUUUCUUUCUCGAUAUCAUAUUAAUCUUU
In the case of B31, the Kd is reported as 1.93 nM.

B32: Ic_S2_P5E.1_K5.1_C5.1_H5.1_A5.1_[T5C]_[T6A]_[A7G]_F5.1_[T9G]_[A10C]_T5.1 (ssRNA)
RNA: UUUGAUUAAUAUGAUAUCGUUCUUUCUUGUACAGUGCUUCUUUCUCGAUAUCAUAUUAAUCUUU
With B32 the Kd was 9.13 nM.

B33: Ic_S2_P5E.1_K5.1_C5.1_H5.1_A5.1_[T5A]_F5.1_[T9G]_[A10G]_T5.1 (ssRNA)
RNA: UUUGAUUAAUAUGAUAUCGUUCUUUCUUGUAAUAUGGUUCUUUCUCGAUAUCAUAUUAAUCUUU
B33 showed a Kd of 75.2 nM.

B34: Ic_S2_P5E.1_K5.1_C5.1_H5.1_A5.1_[T5G]_[T6C]_[A7C]_F5.1_[T9C]_T5.1 (ssRNA)
RNA: UUUGAUUAAUAUGAUAUCGUUCUUUCUUGUAGCCUCAUUCUUUCUCGAUAUCAUAUUAAUCUUU
B34 gave a Kd of 74.8 nM.

B35: Ic_S2_P5E.1_K5.1_C5.1_H5.1_A5.1_[T6A]_[A7T]_F5.1_[T8A]_[T9C]_[A10G]_T5.1 (ssRNA)
RNA: UUUGAUUAAUAUGAUAUCGUUCUUUCUUGUAUAUACGUUCUUUCUCGAUAUCAUAUUAAUCUUU
With B35 the Kd was 8.49 nM.

B36: Ic_S2_P5E.1_K5.1_C5.1_H5.1_A5.1_[T5C]_[T6C]_[A7T]_F5.1_[T8A]_[A10T]_T5.1 (ssRNA)
RNA: UUUGAUUAAUAUGAUAUCGUUCUUUCUUGUACCUAUUUUCUUUCUCGAUAUCAUAUUAAUCUUU
B36 was tested, and the Kd was 9.6 nM.
